Ends that are not written are not given here. * marks the point of attachment. Cbz = O=C(OCc1ccccc1)*
B2: Thermoplasma acidophilum 20S proteasome α subunit, wild type (natural protein, T. acidophilum)
chain: MQQGQMAYDRAITVFSPDGRLFQVEYAREAVKKGSTALGMKFANGVLLISDKKVRSRLIEQNSIEKIQLIDDYVAAVTSGLVADARVLVDFARISAQQEKVTYGSLVNIENLVKRVADQMQQYTQYGGVRPYGVSLIFAGIDQIGPRLFDCDPAGTINEYKATAIGSGKDAVVSFLEREYKENLPEKEAVTLGIKALKSSLEEGEELKAPEIASITVGNKYRIYDQEEVKKFL
notes: proteasome subunit alpha of the Thermoplasma acidophilum 20S proteasome; Single subunit of m1, written for the subunit-subunit rows of the structures; also called T20S α subunit; source: part of the purified T20S (purified as described [42], via 8XHis tags on the C-terminus of β subunit)
B3: Thermoplasma acidophilum 20S proteasome α subunit with the L81Y mutation (natural protein, T. acidophilum)
chain: MQQGQMAYDRAITVFSPDGRLFQVEYAREAVKKGSTALGMKFANGVLLISDKKVRSRLIEQNSIEKIQLIDDYVAAVTSGYVADARVLVDFARISAQQEKVTYGSLVNIENLVKRVADQMQQYTQYGGVRPYGVSLIFAGIDQIGPRLFDCDPAGTINEYKATAIGSGKDAVVSFLEREYKENLPEKEAVTLGIKALKSSLEEGEELKAPEIASITVGNKYRIYDQEEVKKFL
notes: proteasome subunit alpha of the Thermoplasma acidophilum 20S proteasome, L81Y; Subunit of the T20S-αL81Y proteasome whose cryo-EM structure is solved here; also called T20S-αL81Y α subunit; source: part of the purified T20S-αL81Y (overlapping PCR site-directed mutagenesis; purified via 8XHis tags on the C-terminus of β subunit)

What was measured:
[1] = target: Thermoplasma acidophilum wild type 20S proteasome (T. acidophilum) (UniProt P25156)
[2] = target: Mammalian 20S proteasome isolated from bovine liver (bovine (isolated from bovine liver), UniProt Q2YDE4 1-246; Q3T0Y5 1-234; Q3ZCK9 1-261; Q3ZBG0 1-248; Q5E987 1-241; Q3T0X5 …); assay: cell-based or functional assay
[3] = target: Thermoplasma acidophilum wild type 20S proteasome (T. acidophilum) (UniProt P25156); remark: listed apart in the source
[4] = target: the molecule itself; assay: cryo-EM structure; 0.5 mg/mL T20S-αL81Y in 50mM Tris pH 7.4, 150mM NaCl; Titan Krios; homogeneous refinement with D7 symmetry; partially open gate
[5] = target: B3; assay: as above; settings: both partners purified
[6] = target: B2; assay: cryo-EM structure; 0.5 mg/mL WT T20S in 50mM Tris pH 7.4, 150mM NaCl; Titan Krios; homogeneous refinement with D7 symmetry; closed gate; settings: both partners purified
[7] = target: the molecule itself; assay: as above

N-acetylated PAN C-terminus peptide, three residues (Ac-LYR)
LFP hydrolysis (rfu/min) by 7nM WT T20S with N-terminally acetylated peptide (200 μM), relative to DMSO; gate opening [1]: 2 fold

Cbz-Tyr-Ala [Z-Tyr-Ala (carboxybenzyl-tyrosine-alanine), HbYX-like dipeptide mimetic]
nLPnLD-AMC hydrolysis by mammalian 20S (0.5 nM), dose response of ZYA, normalized to DMSO: activation at saturation [2]: ~50 fold | LFP hydrolysis (rfu/min) by 7nM WT T20S with ZYA (2.5mM), normalized to DMSO; gate opening [3]: 13 fold

Ac-LDVLYR [N-acetylated PAN C-terminus peptide, six residues]
LFP hydrolysis (rfu/min) by 7nM WT T20S with N-terminally acetylated peptide (200 μM), relative to DMSO; gate opening [1]: > 10 fold

B1: Thermoplasma acidophilum 20S proteasome β subunit (natural protein, T. acidophilum, UniProt P28061 9-211, looked up)
chain: TTTVGITLKDAVIMATERRVTMENFIMHKNGKKLFQIDTYTGMTIAGLVGDAQVLVRYMKAELELYRLQRRVNMPIEAVATLLSNMLNQVKYMPYMVQLLVGGIDTAPHVFSIDAAGGSVEDIYASTGSGSPFVYGVLESQYSEKMTVDEGVDLVIRAISAAKQRDSASGGMIDVAVITRKDGYVQLPTDQIESRIRKLGLIL
notes: proteasome subunit beta of the Thermoplasma acidophilum 20S proteasome; Single subunit of m1, written for the subunit-subunit rows of the structures; also called T20S β subunit; source: part of the purified T20S (purified as described [42], via 8XHis tags on the C-terminus of β subunit)
binding result [4]: binds | binding result [5]: binds | binding result [6]: binds

B2
binding result [7]: binds

B3
binding result [4]: binds

— article PMC10055539 (Research Square, 2023)
